This assay addresses T1, poly(A)-binding protein (PABP) (human, UniProt P11940 1-636).
T1 construct: source: E. coli BL21, purified (Ni-NTA agarose, ion-exchange chromatography)
Description: pull-down; GST-PDCD4 (40 pmol) incubated with PABP (40 pmol) in solution, 20 μl, 1 h at 4 °C, 25 mM Tris-HCl pH 7.5, 10% glycerol, 100 mM KCl, 2.5 mM MgCl2, 2 mM DTT, 0.25 mM spermidine, 0.2 mM GTP; then held on glutathione-sepharose 4B, four washes, release by TEV protease, western blot. The note with it: both partners purified. (In general: Immunoblotting shows a protein as a band on a membrane.)

T1 sequence (P11940 whole entry): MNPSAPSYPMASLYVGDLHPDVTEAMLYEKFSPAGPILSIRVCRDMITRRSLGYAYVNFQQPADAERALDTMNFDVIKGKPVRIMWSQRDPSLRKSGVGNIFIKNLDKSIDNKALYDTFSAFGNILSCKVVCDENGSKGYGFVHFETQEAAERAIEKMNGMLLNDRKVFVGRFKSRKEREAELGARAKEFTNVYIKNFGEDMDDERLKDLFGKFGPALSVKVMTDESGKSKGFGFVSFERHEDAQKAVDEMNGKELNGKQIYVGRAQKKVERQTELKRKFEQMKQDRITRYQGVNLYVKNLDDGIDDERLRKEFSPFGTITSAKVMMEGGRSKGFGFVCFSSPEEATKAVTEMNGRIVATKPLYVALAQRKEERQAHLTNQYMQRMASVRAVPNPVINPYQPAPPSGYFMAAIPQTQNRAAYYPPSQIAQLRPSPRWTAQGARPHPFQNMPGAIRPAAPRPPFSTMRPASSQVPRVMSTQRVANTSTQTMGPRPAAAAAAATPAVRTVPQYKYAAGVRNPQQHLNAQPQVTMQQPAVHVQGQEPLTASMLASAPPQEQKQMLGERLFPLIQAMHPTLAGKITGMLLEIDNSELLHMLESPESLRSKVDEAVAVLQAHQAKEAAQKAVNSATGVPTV

B1: GST-tagged programmed cell death 4 protein (PDCD4) (natural protein, human, UniProt Q53EL6-1 1-469, looked up)
chain: MDVENEQILNVNPADPDNLSDSLFSGDEENAGTEEIKNEINGNWISASSINEARINAKAKRRLRKNSSRDSGRGDSVSDSGSDALRSGLTVPTSPKGRLLDRRSRSGKGRGLPKKGGAGGKGVWGTPGQVYDVEEVDVKDPNYDDDQENCVYETVVLPLDERAFEKTLTPIIQEYFEHGDTNEVAEMLRDLNLGEMKSGVPVLAVSLALEGKASHREMTSKLLSDLCGTVMSTTDVEKSFDKLLKDLPELALDTPRAPQLVGQFIARAVGDGILCNTYIDSYKGTVDCVQARAALDKATVLLSMSKGGKRKDSVWGSGGGQQSVNHLVKEIDMLLKEYLLSGDISEAEHCLKELEVPHFHHELVYEAIIMVLESTGESTFKMILDLLKSLWKSSTITVDQMKRGYERIYNEIPDINLDVPHSYSVLERFVEECFQAGIISKQLRDLCPSRGRKRFVSEGDGGRLKPESY
notes: human PDCD4, isoform 1, UniProt Q53EL6-1; cDNA cloned into pGEX-6p-1; printed primers run from the start codon to the last codon; Held on glutathione-sepharose by GST in the pull-down; also called GST-PDCD4; recombinant PDCD4; source: E. coli BL21, purified (glutathione-sepharose 4B, eluted with glutathione; HiTrapQ)
B1: the binding result is given as “binds”.

The record behind these values is PMC8551656, “Discovery of a novel role of tumor suppressor PDCD4 in stimulation of translation termination” (The Journal of Biological Chemistry, 2021).
